This experiment has as its target T1, recombinant PARP1 (human, UniProt P09874 1-1014).
T1 construct: PARP1, recombinant; also called purified PARP1; source: recombinant, purified
In words: pull-down; His-GFP-TPX2 proteins immobilised on GFP-Trap beads, equimolar recombinant PARP1 added, 2 h 4°C; 20 mM Tris-HCl pH 7.5, 250 mM NaCl, 0.2% glycerol, 0.2% Triton X-100; Western blot. To be noted: both partners purified.

T1 sequence (P09874 whole entry): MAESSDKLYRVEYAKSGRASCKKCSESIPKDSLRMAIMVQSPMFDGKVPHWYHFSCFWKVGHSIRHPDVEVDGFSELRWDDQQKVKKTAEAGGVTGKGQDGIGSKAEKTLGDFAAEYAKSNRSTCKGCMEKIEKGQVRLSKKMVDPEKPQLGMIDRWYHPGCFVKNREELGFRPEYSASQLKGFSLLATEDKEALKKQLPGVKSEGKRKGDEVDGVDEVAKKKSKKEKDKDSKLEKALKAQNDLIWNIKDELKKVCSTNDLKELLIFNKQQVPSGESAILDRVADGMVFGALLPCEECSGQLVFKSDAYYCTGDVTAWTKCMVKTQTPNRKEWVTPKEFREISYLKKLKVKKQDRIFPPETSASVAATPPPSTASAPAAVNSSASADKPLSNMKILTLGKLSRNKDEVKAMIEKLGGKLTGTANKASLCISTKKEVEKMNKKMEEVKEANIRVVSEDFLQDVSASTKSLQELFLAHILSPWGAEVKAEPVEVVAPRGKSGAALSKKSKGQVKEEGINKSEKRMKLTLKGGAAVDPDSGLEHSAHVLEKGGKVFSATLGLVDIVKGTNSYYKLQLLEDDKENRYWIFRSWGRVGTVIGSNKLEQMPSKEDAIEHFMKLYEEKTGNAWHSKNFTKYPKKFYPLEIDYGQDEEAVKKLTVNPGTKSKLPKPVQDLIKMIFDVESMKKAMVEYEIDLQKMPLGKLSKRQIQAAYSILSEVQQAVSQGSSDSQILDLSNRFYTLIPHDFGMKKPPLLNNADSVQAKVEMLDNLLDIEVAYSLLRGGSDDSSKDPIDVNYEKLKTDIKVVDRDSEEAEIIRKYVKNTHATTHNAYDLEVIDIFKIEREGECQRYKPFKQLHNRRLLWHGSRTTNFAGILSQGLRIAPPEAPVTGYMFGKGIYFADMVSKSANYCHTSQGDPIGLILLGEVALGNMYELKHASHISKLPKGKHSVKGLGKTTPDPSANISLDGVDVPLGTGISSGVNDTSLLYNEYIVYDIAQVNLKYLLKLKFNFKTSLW

B1: His-GFP-tagged TPX2 N-terminal part (1–254 amino acids), recombinant (domain or fragment, UniProt Q9ULW0 1-254, looked up)
chain: MSQVKSSYSYDAPSDFINFSSLDDEGDTQNIDSWFEEKANLENKLLGKNGTGGLFQGKTPLRKANLQQAIVTPLKPVDNTYYKEAEKENLVEQSIPSNACSSLEVEAAISRKTPAQPQRRSLRLSAQKDLEQKEKHHVKMKAKRCATPVIIDEILPSKKMKVSNNKKKPEEEGSAHQDTAEKNASSPEKAKGRHTVPCMPPAKQKFLKSTEEQELEKSMKMQQEVVEMRKKNEEFKKLALAGIGQPVKKSVSQV
notes: also called TPX2_254only; source: recombinant, purified
In the case of B1, the binding result is “binds”.

B2: His-GFP-tagged TPX2 full-length protein (recombinant) (natural protein, UniProt Q9ULW0 1-747, looked up)
chain: MSQVKSSYSYDAPSDFINFSSLDDEGDTQNIDSWFEEKANLENKLLGKNGTGGLFQGKTPLRKANLQQAIVTPLKPVDNTYYKEAEKENLVEQSIPSNACSSLEVEAAISRKTPAQPQRRSLRLSAQKDLEQKEKHHVKMKAKRCATPVIIDEILPSKKMKVSNNKKKPEEEGSAHQDTAEKNASSPEKAKGRHTVPCMPPAKQKFLKSTEEQELEKSMKMQQEVVEMRKKNEEFKKLALAGIGQPVKKSVSQVTKSVDFHFRTDERIKQHPKNQEEYKEVNFTSELRKHPSSPARVTKGCTIVKPFNLSQGKKRTFDETVSTYVPLAQQVEDFHKRTPNRYHLRSKKDDINLLPSKSSVTKICRDPQTPVLQTKHRARAVTCKSTAELEAEELEKLQQYKFKARELDPRILEGGPILPKKPPVKPPTEPIGFDLEIEKRIQERESKKKTEDEHFEFHSRPCPTKILEDVVGVPEKKVLPITVPKSPAFALKNRIRMPTKEDEEEDEPVVIKAQPVPHYGVPFKPQIPEARTVEICPFSFDSRDKERQLQKEKKIKELQKGEVPKFKALPLPHFDTINLPEKKVKNVTQIEPFCLETDRRGALKAQTWKHQLEEELRQQKEAACFKARPNTVISQEPFVPKKEKKSVAEGLSGSLVQEPFQLATEKRAKERQELEKRMAEVEAQKAQQLEEARLQEEEQKKEELARLRRELVHKANPIRKYQGLEIKSSDQPLTVPVSPKFSTRFHC
notes: TPX2, full length; also called recombinant TPX2; full-length TPX2; source: recombinant, purified
Regarding B2, the binding result is given as “binds”.
